The record followed here is patent US20220411511A1 (STCUBE, published 2022).

Test [1] addresses T1, CTLA-4-His (human, UniProt P16410 36-161, limits assumed, N-linked glycosylation at N113 and N145 (heavily glycosylated)).
T1 construct: also called antigen CTLA-4-His; not shown: His tag
T1 sequence: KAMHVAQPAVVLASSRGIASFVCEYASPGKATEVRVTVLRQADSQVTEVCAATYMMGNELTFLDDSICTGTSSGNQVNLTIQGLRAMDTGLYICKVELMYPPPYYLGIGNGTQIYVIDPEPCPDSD
Description: Octet BLI, antibody loaded on sensor, 1:1 fit. On the procedure: KD determination and binning by Octet. […] Baseline was established in PBS containing 1 mg/ml bovine serum albumin (assay buffer), the association step was performed by submerging the sensors in a single concentration of analyte in assay buffer. Dissociation was performed and monitored in fresh assay buffer. All experiments were performed with sensor shaking at 1,000 rpm. ForteBio's data analysis software was used to fit the data to a 1:1 binding model to extract an association rate and dissociation rate. The KD was calculated using the ratio kd/kₐ. In a typical epitope binning assay, antigen CTLA-4-His (10 nM) was preincubated with the second antibody (10 nM) for 1 h at room temperature. Control antibody (20 nM) was loaded onto AMC sensors (ForteBio) and remaining Fc-binding sites on the sensor were blocked with a whole mouse IgG antibody (Jackson ImmunoResearch). The sensors were exposed to preinculated antigen-second antibody mixture. Raw data was processed using ForteBio's Data Analysis Software 7.0 and the antibody pairs were assessed for competitive binding.
The baseline was established in PBS containing 1 mg/mL bovine serum albumin (assay buffer), and the association step was performed by submerging the sensors in a single concentration of analyte in assay buffer. Dissociation was performed and monitored in fresh assay buffer. All experiments were performed with the sensor shaking at 1,000 rotations per minute. ForteBio (Menlo Park, Calif., USA) data analysis software was used to fit the data to a 1:1 binding model to extract an association rate and dissociation rate. KD was calculated using the ratio kd:ka.

Test [2] has as its target T2, CTLA-4 N145Q mutant expressed in 293T cells (human, UniProt P16410 36-223).
T2 construct: Flag-tagged; single-glycosylated (only N113 can carry a glycan); Tested by Western blot
In words: blot under native condition of 293T cells expressing flag-tagged CTLA-4.

The target in test [3] is T3, CTLA-4 N113Q mutant expressed in 293T cells (human, UniProt P16410 36-223).
T3 construct: Flag-tagged; single-glycosylated (only N145 can carry a glycan); Tested by Western blot
Described as above.

The target of test [4] is T4, CTLA-4 2NQ (non-glycosylated form) expressed in 293T cells (human, UniProt P16410 36-223).
T4 construct: also called CTLA-4 2NQ mutant; unglycosylated CTLA-4
The test is described as above.

The target of test [5] is T5, CTLA-4 WT expressed on 293T cells (human, UniProt P16410 36-223, N-linked glycosylation at N113 and N145).
T5 construct: also called wild type CTLA-4; Flag-tagged CTLA-4 WT
T5 sequence: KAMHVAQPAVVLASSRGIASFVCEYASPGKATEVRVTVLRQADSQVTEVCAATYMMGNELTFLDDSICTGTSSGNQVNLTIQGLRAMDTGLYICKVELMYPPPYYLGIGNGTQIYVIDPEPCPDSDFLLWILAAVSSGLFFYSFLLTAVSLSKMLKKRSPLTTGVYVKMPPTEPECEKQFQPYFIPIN
In words: IncuCyte, inhibition of CD86-Fc binding to 293T cells expressing CTLA-4. On the procedure: (§1) The green fluorescent signals were measured every 2 hours and quantified using an IncuCyte Zoom system (Essen BioScience).

In test [6] the target is T1, CTLA-4-His. Description: Biacore X100 SPR, antibody captured on CM5 chip, six concentrations of CTLA4, 1:1 fit. The procedure: KD determination was performed via surface plasmon resonance using a Biacore X100 instrument (GE Healthcare, Uppsala, Sweden). […] was immobilized on a research-grade CM5 chip using standard procedures, and antibody was flowed over the chip at 2 μg/mL in HBS-EP⁺ buffer. Next, six concentrations of CTLA4, each a 2-fold dilution, were passed over the chip. Sensorgram data were analyzed by Biacore X100 evaluation software version 2.0.1 with 1:1 binding kinetics.

In test [7] the target is T5, CTLA-4 WT expressed on 293T cells. In words: IncuCyte, inhibition of CD86-Fc binding to CTLA-4-expressing cells; human chimera hSTC1807 (FIG. 8B), not the mouse STC1807 of FIG. 7B (2.189 µg/mL). On the procedure:
as §1

B1: anti-glycCTLA-4 monoclonal antibody STC1807 (antibody, V domains shown)
VH: EVQLQQSGAELVRPGALVKLSCKASGFNIKDYYMNWVKQRPEQGLEWIGWIDPENGNTIYDPKFQGKASIIADTSSNTAYLQLSSLTSEDTAVYYCARKWSYTMDYWGQGTSVTVSS
VL: QIVLTQSPALMSASPGEKVTMTCSASSFVGYMYWYQQKPRSSPKPWIYLTSNLASGVPGRFSGSGSGTSYSLTISNMEAEDAATYYCQQWSSNPLTFGAGTKLELK
notes: Mouse hybridoma monoclonal antibody (BALB/c), kappa light chain; also called MAb STC1807
For orientation: Kd means the equilibrium constant for the complex coming apart. As a reminder, the koff is a measure of how fast the partners let go of each other. A lower koff goes with slow dissociation. One may read the kon as the second-order rate constant of association. A lower kon goes with slow association. By EC50 is commonly meant the concentration that produces a half-maximal response. A low value points to higher potency in that assay. As for B1, the results for the Kd in the test with CTLA-4-His [1] and with CTLA-4-His [6] were 1.86 nM and 0.469 nM, respectively. Further, the koff with CTLA-4-His [1] came out at 0.000499 s⁻¹; with CTLA-4-His [6], 0.000217 s⁻¹. The kon in the test with CTLA-4-His [1] was found to be 268000 M⁻¹ s⁻¹; with CTLA-4-His [6] it was 463000 M⁻¹ s⁻¹. Besides, the binding result in test [2] was “binds”; in test [3], “no binding”; in test [4], “no binding”. Further, in test [5], the EC50 came to 2.19 µg/mL.

B2: human chimera of STC1807 (hSTC1807) (antibody, V domains shown)
VH: EVQLQQSGAELVRPGALVKLSCKASGFNIKDYYMNWVKQRPEQGLEWIGWIDPENGNTIYDPKFQGKASIIADTSSNTAYLQLSSLTSEDTAVYYCARKWSYTMDYWGQGTSVTVSS
VL: QIVLTQSPALMSASPGEKVTMTCSASSFVGYMYWYQQKPRSSPKPWIYLTSNLASGVPGRFSGSGSGTSYSLTISNMEAEDAATYYCQQWSSNPLTFGAGTKLELKR
notes: domain: kappa constant region of pFUSEss-CLIg-hK; Mouse constant regions replaced by human ones; also called human chimera STC1807; chimeric antibody (hSTC1807); not shown: human IgG1 constant region (CH1-CH3) from vector pFUSEss-CHIg-hG1 (Invivogen)
B2 yielded an EC50 in test [7] of 0.331 µg/mL.
